Laboratory results as given in patent publication US20220177587A1, “METHODS AND USES OF VARIANT CD80 FUSION PROTEINS AND RELATED CONSTRUCTS” (Alpine Immune Sciences, Inc., priority 2018, published 2022).

Assays:
CD28 (human) [1] = molecular target: CD28 (human) (UniProt P10747); experiment: flow cytometry, Jurkat/IL2 reporter cells (endogenous CD28)
human CTLA-4 (human) [2] = molecular target: human CTLA-4 (human) (UniProt P16410); experiment: flow cytometry, CHO cells expressing huCTLA4
human CTLA-4 (human) [3] = molecular target: human CTLA-4 (human) (UniProt P16410); experiment: flow cytometry, CHO cells expressing huCTLA4; MFI ratio to WT CD80 ECD-Fc (R&D)
human PD-L1 (human) [4] = molecular target: human PD-L1 (human) (UniProt Q9NZQ7); experiment: flow cytometry, CHO cells expressing huPD-L1
Chain of human PD-L1 (human) (Q9NZQ7 19-290): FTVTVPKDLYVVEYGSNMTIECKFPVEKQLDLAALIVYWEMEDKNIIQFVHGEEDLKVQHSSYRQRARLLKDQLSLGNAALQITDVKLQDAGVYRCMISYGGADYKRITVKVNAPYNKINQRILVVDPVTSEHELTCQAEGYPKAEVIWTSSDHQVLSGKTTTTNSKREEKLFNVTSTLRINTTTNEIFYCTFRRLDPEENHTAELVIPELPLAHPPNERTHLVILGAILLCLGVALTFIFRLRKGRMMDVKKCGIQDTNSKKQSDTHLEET

human PD-L1 (human) [5] = molecular target: human PD-L1 (human) (UniProt Q9NZQ7); experiment: flow cytometry; binding to PD-L1 cells against binding of the same variant to CD28 cells
human PD-L1 (human) [6] = molecular target: human PD-L1 (human) (UniProt Q9NZQ7); experiment: flow cytometry, CHO cells expressing huPD-L1; MFI ratio to WT CD80 ECD-Fc (R&D)
CD28 (human) [7] = molecular target: CD28 (human) (UniProt P10747); experiment: flow cytometry, Jurkat/IL2 reporter cells (endogenous CD28); MFI ratio to WT CD80 ECD-Fc (R&D)

Chain of human CTLA-4 (human) (P16410 36-223): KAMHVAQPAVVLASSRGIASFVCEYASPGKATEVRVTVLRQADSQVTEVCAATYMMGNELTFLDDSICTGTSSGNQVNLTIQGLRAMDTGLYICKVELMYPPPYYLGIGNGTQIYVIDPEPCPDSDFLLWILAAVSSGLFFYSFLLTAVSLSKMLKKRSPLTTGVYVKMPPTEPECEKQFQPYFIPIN

| Binder | MFI at 33.3 nM (CD28 (human) [1]) | MFI at 33.3 nM (human CTLA-4 (human) [2]) | Fold change to WT CD80 (human CTLA-4 (human) [3]) | MFI at 33.3 nM (human PD-L1 (human) [4]) | Ratio of PDL1:CD28 (human PD-L1 (human) [5]) | Fold change to WT (human PD-L1 (human) [6]) | Fold change to WT (CD28 (human) [7]) |
| --- | --- | --- | --- | --- | --- | --- | --- |
| variant CD80 IgV-Fc Q33L/E35D/M47I (Fc fusion) VIHVTKEVKEVATLSCGHNVSVEELAQTRIYWLKDKKMVLTMMSGDINIWPEYKNRTIFDITNNLSIVILALRPSDEGTYECVVLKYEKDAFKREHLAEVTLSVKAD | 282 MFI | 15900 MFI | 0.09 fold | 37400 MFI | 132 | 4.7 fold | 0.04 fold |
| variant CD80 IgV-Fc H18Y/Q33L/E35D/M47I (Fc fusion) VIHVTKEVKEVATLSCGYNVSVEELAQTRIYWLKDKKMVLTMMSGDINIWPEYKNRTIFDITNNLSIVILALRPSDEGTYECVVLKYEKDAFKREHLAEVTLSVKAD | 295 MFI | 5540 MFI | 0.03 fold | 47800 MFI | 162 | 6.02 fold | 0.04 fold |
| variant CD80 IgV-Fc H18Y/E35D/M47L (Fc fusion) VIHVTKEVKEVATLSCGYNVSVEELAQTRIYWQKDKKMVLTMMSGDLNIWPEYKNRTIFDITNNLSIVILALRPSDEGTYECVVLKYEKDAFKREHLAEVTLSVKAD | 5070 MFI | 284000 MFI | 1.59 fold | 44200 MFI | 9 | 5.56 fold | 0.66 fold |
| variant CD80 IgV-Fc Q33L/E35D/T41S/M47V (Fc fusion) VIHVTKEVKEVATLSCGHNVSVEELAQTRIYWLKDKKMVLSMMSGDVNIWPEYKNRTIFDITNNLSIVILALRPSDEGTYECVVLKYEKDAFKREHLAEVTLSVKAD | 287 MFI | 14500 MFI | 0.08 fold | 43800 MFI | 153 | 5.52 fold | 0.04 fold |
| variant CD80 IgV-Fc Q33L/E35D/M47I/L85Q (Fc fusion) VIHVTKEVKEVATLSCGHNVSVEELAQTRIYWLKDKKMVLTMMSGDINIWPEYKNRTIFDITNNLSIVILALRPSDEGTYECVVQKYEKDAFKREHLAEVTLSVKAD | 287 MFI | 20500 MFI | 0.11 fold | 63900 MFI | 222 | 8.05 fold | 0.04 fold |
| variant CD80 IgV-Fc Q33L/E35D/M47I/T62N/L85Q (Fc fusion) VIHVTKEVKEVATLSCGHNVSVEELAQTRIYWLKDKKMVLTMMSGDINIWPEYKNRTIFDINNNLSIVILALRPSDEGTYECVVQKYEKDAFKREHLAEVTLSVKAD | 284 MFI | 1660 MFI | 0.01 fold | 72600 MFI | 256 | 9.14 fold | 0.04 fold |
| variant CD80 IgV-Fc Q33L/E35D/M47V/L85Q (Fc fusion) VIHVTKEVKEVATLSCGHNVSVEELAQTRIYWLKDKKMVLTMMSGDVNIWPEYKNRTIFDITNNLSIVILALRPSDEGTYECVVQKYEKDAFKREHLAEVTLSVKAD | 268 MFI | 75400 MFI | 0.42 fold | 47400 MFI | 177 | 5.97 fold | 0.04 fold |
| variant CD80 IgV-Fc A26E/E35D/M43T/M47L/L85Q/R94Q (Fc fusion) VIHVTKEVKEVATLSCGHNVSVEELEQTRIYWQKDKKMVLTMTSGDLNIWPEYKNRTIFDITNNLSIVILALRPSDEGTYECVVQKYEKDAFKQEHLAEVTLSVKAD | 260 MFI | 278000 MFI | 1.56 fold | 68100 MFI | 262 | 8.57 fold | 0.03 fold |
| variant CD80 IgV-Fc V22A/E23D/Q33L/E35D/M47V (Fc fusion) VIHVTKEVKEVATLSCGHNVSADELAQTRIYWLKDKKMVLTMMSGDVNIWPEYKNRTIFDITNNLSIVILALRPSDEGTYECVVLKYEKDAFKREHLAEVTLSVKAD | 274 MFI | 3640 MFI | 0.02 fold | 75500 MFI | 275 | 9.51 fold | 0.04 fold |
| variant CD80 IgV-Fc E7D/E35D/M47I/L97Q (Fc fusion) VIHVTKDVKEVATLSCGHNVSVEELAQTRIYWQKDKKMVLTMMSGDINIWPEYKNRTIFDITNNLSIVILALRPSDEGTYECVVLKYEKDAFKREHQAEVTLSVKAD | 273 MFI | 271000 MFI | 1.52 fold | 14600 MFI | 54 | 1.84 fold | 0.04 fold |
| variant CD80 IgV-Fc Q33L/E35D/T41S/M43I (Fc fusion) VIHVTKEVKEVATLSCGHNVSVEELAQTRIYWLKDKKMVLSMISGDMNIWPEYKNRTIFDITNNLSIVILALRPSDEGTYECVVLKYEKDAFKREHLAEVTLSVKAD | 433 MFI | 6390 MFI | 0.04 fold | 44900 MFI | 104 | 5.66 fold | 0.06 fold |
| variant CD80 IgV-Fc Q33K/E35D/D46V/L85Q (Fc fusion) VIHVTKEVKEVATLSCGHNVSVEELAQTRIYWKKDKKMVLTMMSGVMNIWPEYKNRTIFDITNNLSIVILALRPSDEGTYECVVQKYEKDAFKREHLAEVTLSVKAD | 257 MFI | 8510 MFI | 0.05 fold | 26700 MFI | 104 | 3.36 fold | 0.03 fold |
| variant CD80 IgV-Fc Y31S/E35D/M47L/T79L/E88G (Fc fusion) VIHVTKEVKEVATLSCGHNVSVEELAQTRISWQKDKKMVLTMMSGDLNIWPEYKNRTIFDITNNLSIVILALRPSDEGLYECVVLKYGKDAFKREHLAEVTLSVKAD | 278 MFI | 1100 MFI | 0.01 fold | 38900 MFI | 140 | 4.9 fold | 0.04 fold |
| variant CD80 IgV-Fc H18L/V22A/E35D/M47L/N48T/L85Q (Fc fusion) VIHVTKEVKEVATLSCGLNVSAEELAQTRIYWQKDKKMVLTMMSGDLTIWPEYKNRTIFDITNNLSIVILALRPSDEGTYECVVQKYEKDAFKREHLAEVTLSVKAD | 434 MFI | 374000 MFI | 2.09 fold | 98100 MFI | 226 | 12.3 fold | 0.06 fold |
| variant CD80 IgV-Fc E35D/M47I/E77A/L85Q/R94W (Fc fusion) VIHVTKEVKEVATLSCGHNVSVEELAQTRIYWQKDKKMVLTMMSGDINIWPEYKNRTIFDITNNLSIVILALRPSDAGTYECVVQKYEKDAFKWEHLAEVTLSVKAD | 272 MFI | 247000 MFI | 1.38 fold | 64500 MFI | 238 | 8.12 fold | 0.04 fold |
| variant CD80 IgV-Fc Q27H/Q33L/E35D/M47V/N55D/L85Q/K89N (Fc fusion) VIHVTKEVKEVATLSCGHNVSVEELAHTRIYWLKDKKMVLTMMSGDVNIWPEYKDRTIFDITNNLSIVILALRPSDEGTYECVVQKYENDAFKREHLAEVTLSVKAD | 269 MFI | 56100 MFI | 0.31 fold | 14800 MFI | 55 | 1.86 fold | 0.04 fold |
| variant CD80 IgV-Fc H18Y/V20A/Q33L/E35D/M47V/Y53F (Fc fusion) VIHVTKEVKEVATLSCGYNASVEELAQTRIYWLKDKKMVLTMMSGDVNIWPEFKNRTIFDITNNLSIVILALRPSDEGTYECVVLKYEKDAFKREHLAEVTLSVKAD | 260 MFI | 2880 MFI | 0.02 fold | 121000 MFI | 463 | 15.2 fold | 0.03 fold |
| variant CD80 IgV-Fc Q33L/E35D/M47L/A71G/F92S (Fc fusion) VIHVTKEVKEVATLSCGHNVSVEELAQTRIYWLKDKKMVLTMMSGDLNIWPEYKNRTIFDITNNLSIVILGLRPSDEGTYECVVLKYEKDASKREHLAEVTLSVKAD | 366 MFI | 2110 MFI | 0.01 fold | 28000 MFI | 77 | 3.53 fold | 0.05 fold |
| variant CD80 IgV-Fc V22A/R29H/E35D/D46E/M47I (Fc fusion) VIHVTKEVKEVATLSCGHNVSAEELAQTHIYWQKDKKMVLTMMSGEINIWPEYKNRTIFDITNNLSIVILALRPSDEGTYECVVLKYEKDAFKREHLAEVTLSVKAD | 323 MFI | 77400 MFI | 0.43 fold | 25400 MFI | 79 | 3.2 fold | 0.04 fold |
| variant CD80 IgV-Fc Q33L/E35D/M43I/L85Q/R94W (Fc fusion) VIHVTKEVKEVATLSCGHNVSVEELAQTRIYWLKDKKMVLTMISGDMNIWPEYKNRTIFDITNNLSIVILALRPSDEGTYECVVQKYEKDAFKWEHLAEVTLSVKAD | 272 MFI | 1080 MFI | 0.01 fold | 29000 MFI | 107 | 3.65 fold | 0.04 fold |
